Test results reported in patent US20170247447A1 (Hoffmann-La Roche, published 2017).
Where two headings read alike, the source gives them in different places.

B1: huH34-2 (antibody, V domains shown)
VH: QVQLVQSGAEVKKPGASVKVSCKASGYTFTGYYMHWVRQAPGQGLEWIGYISSYNAFTTYNQKFRGRATFTVDTSISTAYMELSRLRSDDTAVYYCVRSDYYGTSLYWGQGTLVTVSS
VL: EIVLTQSPATLSLSPGERATLSCRASSSVSYMHWSQQKPGQAPRLLIYSTSNLASGIPARFSGSGSGTDFTLTISSLEPEDFAVYYCHQWSNYYTFGQGTKLEIK
notes: Humanized, captured by anti-human Fc in SPR; also called huH34-2 bivalent
B2: antibody 0031 (bispecific anti-ANG2/IL-1beta CrossMab antibody) (bispecific antibody, V domains shown)
VH 1: QVQLVQSGAEVKKPGASVKVSCKASGYTFTGYYMHWVRQAPGQGLEWIGYISSYNAFTTYNQKFRGRATFTVDTSISTAYMELSRLRSDDTAVYYCVRSDYYGTSLYWGQGTLVTVSS
VL 1: EIVLTQSPATLSLSPGERATLSCRASSSVSYMHWSQQKPGQAPRLLIYSTSNLASGIPARFSGSGSGTDFTLTISSLEPEDFAVYYCHQWSNYYTFGQGTKLEIK
VH 2: not shown
VL 2: SYVLTQPPSVSVAPGQTARITCGGNNIGSKSVHWYQQKPGQAPVLVVYDTSDRPSGIPERFSGSNSGNTATLTISRVEAGDEADYYCQVWDSSSDHWVFGGGTKLTVLSS
notes: also called anti-IL-1beta/ANG2 antibody
B3: huH34-3 (antibody, V domains shown)
VH: QVQLVQSGAEVKKPGASVKVSCKASGYTFTGYYMHWVRQAPGQGLEWIGYISSYSAFTTYNQKFRGRATFTVDTSISTAYMELSRLRSDDTAVYYCVRSDYYGTSLYWGQGTLVTVSS
VL: EIVLTQSPATLSLSPGERATLSCRASSSVSYMHWSQQKPGQAPRLLIYSTSNLASGIPARFSGSGSGTDFTLTISSLEPEDFAVYYCHQWSNYYTFGQGTKLEIK
B4: antibody 0032 (bispecific anti-VEGF/IL-1beta CrossMab antibody) (bispecific antibody, V domains shown)
VH 1: EVQLVESGGGLVQPGGSLRLSCAASGYDFTHYGMNWVRQAPGKGLEWVGWINTYTGEPTYAADFKRRFTFSLDTSKSTAYLQMNSLRAEDTAVYYCAKYPYYYGTSHWYFDVWGQGTLVTVSS
VL 1: DIQLTQSPSSLSASVGDRVTITCSASQDISNYLNWYQQKPGKAPKVLIYFTSSLHSGVPSRFSGSGSGTDFTLTISSLQPEDFATYYCQQYSTVPWTFGQGTKVEIK
VH 2: QVQLVQSGAEVKKPGASVKVSCKASGYTFTGYYMHWVRQAPGQGLEWIGYISSYNAFTTYNQKFRGRATFTVDTSISTAYMELSRLRSDDTAVYYCVRSDYYGTSLYWGQGTLVTVSS
VL 2: EIVLTQSPATLSLSPGERATLSCRASSSVSYMHWSQQKPGQAPRLLIYSTSNLASGIPARFSGSGSGTDFTLTISSLEPEDFAVYYCHQWSNYYTFGQGTKLEIK
notes: also called anti-IL-1beta/VEGF antibody
B5: huH34-1 (antibody, V domains shown)
VH: QVQLVQSGAEVKKPGASVKVSCKASGYTFTGYYMHWVRQAPGQGLEWMGYISSYSGFTTYAQKFQGRVTMTRDTSISTAYMELSRLRSDDTAVYYCARSDYYGTSLYWGQGTLVTVSS
VL: EIVLTQSPATLSLSPGERATLSCRASSSVSYMHWSQQKPGQAPRLLIYSTSNLASGIPARFSGSGSGTDFTLTISSLEPEDFAVYYCHQWSNYYTFGQGTKLEIK
B6: Canakinumab (antibody, V domains shown)
VH: QVQLVESGGGVVQPGRSLRLSCAASGFTFSVYGMNWVRQAPGKGLEWVAIIWYDGDNQYYADSVKGRFTISRDNSKNTLYLQMNGLRAEDTAVYYCARDLRTGPFDYWGQGTLVTVSS
VL: EIVLTQSPDFQSVTPKEKVTITCRASQSIGSSLHWYQQKPDQSPKLLIKYASQSFSGVPSRFSGSGSGTDFTLTINSLEAEDAAAYYCHQSSSLPFTFGPGTKVDIKR
B7: murine anti-IL-1beta antibody ILB1-H34 (antibody, mouse IgG1, V domains shown)
VH: EVQLQQSGPELVKTGASVKISCKASGYSFTGYYMHWVKQSHGKSLEWIGYISCYNAFTTYNQRFRGKATFTVDTSSSTAYMQFNSLTSEDSAVYYCVRSDYYGTSLYWGQGTTLTVSS
VL: QIVLTQSPAIMSASLGEEITLTCSASSSVSYMHWSQQKSGSSPKLLIYSTSNLASGVPSRFSGSGSGTFYSLTISSVEAEDAADYYCHQWSNYYTFGGGTKLEIK
notes: also called HLB1-H34
B8: mumAb (novel murine anti-human IL-1beta antibody) (antibody, V domains shown)
VH: EVQLQQSGPELEKPGASVKISCKASGYSFTDYNMNWVRQSNGKSLEWIGNIDPYYGGTTYNQKFKDKATLTVDKSSSTAYMQLKSLTSEDSAVYYCAREGSPTRYYVMDYWGQGTSVTVSS
VL: DIQMTQSPASLSASVGETVTITCRASENIYSNLAWYQQKQGKSPQLLVYAATNLADGVPSRFSGSGSGTQFSLKINSLQPEDFGSYYCHHFYNTPWTFGGGTKLEIK

How the values were obtained:
human IL-1beta [1] = target: T1, human IL-1beta (human, UniProt P01584 117-269); experiment: cell-based or functional assay
human IL-1beta [2] = target: T1, human IL-1beta; experiment: cell-based or functional assay; remark: listed apart in the source
human IL-1beta [3] = target: T1, human IL-1beta; experiment: SPR (BIAcore T200), antibody captured via anti-human Fc, human IL-1beta in solution
Protocol: All experiments were performed at 25° C. using HBS-P (10 mM His, 140 mM NaCl, 0.05% Tween 20 pH 7.4) as running and dilution buffer. Anti-human Fc antibodies were immobilized on a Series S CM5 Sensor Chip (GE Healthcare) using standard amine coupling chemistry. Bispecific antibodies were captured on the surface leading to a capturing response of 100-200 RU. […] The dissociation phase was monitored for 600 sec by washing with running buffer. The surface was regenerated by injecting 3 M MgCl2 (for anti-human Fc antibody) or 10 mM Glycine pH 1.5 (for anti-mouse Fc antibody) for 60 sec at a flow rate of 5 μl/min. Bulk refractive index differences were corrected by subtracting the response obtained from a mock surface. Blank injections were subtracted (double referencing). The derived curves were fitted to a 1:1 Langmuir binding model using the BIAevaluation software.

human IL-1beta [4] = target: T1, human IL-1beta; experiment: cell-based or functional assay; remark: listed apart in the source
human IL-1beta [5] = target: T1, human IL-1beta; experiment: cell-based or functional assay; remark: listed apart in the source
human IL-1beta [6] = target: T1, human IL-1beta; experiment: cell-based or functional assay; remark: listed apart in the source
human IL-1beta [7] = target: T1, human IL-1beta; experiment: SPR competition, 10 nM human IL-1beta pre-incubated with antibody, competitor immobilized human IL-1RI
Protocol: All experiments were performed at 25° C. using HBS-P (10 mM His, 140 mM NaCl, 0.05% Tween 20 pH 7.4) as running and dilution buffer. Human IL-1RI was immobilized on a Series S CM5 Sensor Chip (GE Healthcare) using standard amine coupling chemistry. […] The surface was regenerated by injecting 10 mM NaOH for 60 sec at a flow rate of 5 μl/min. Bulk refractive index differences were corrected by subtracting the response obtained from a mock surface.

human IL-1beta [8] = target: T1, human IL-1beta; experiment: SPR (BIAcore), antibody captured via anti-Fc, IL-1beta in solution
cynomolgus IL-1beta [9] = target: T2, cynomolgus IL-1beta (cynomolgus, UniProt P79182 117-268); experiment: as above
T2 sequence (P79182 117-268 limits assumed): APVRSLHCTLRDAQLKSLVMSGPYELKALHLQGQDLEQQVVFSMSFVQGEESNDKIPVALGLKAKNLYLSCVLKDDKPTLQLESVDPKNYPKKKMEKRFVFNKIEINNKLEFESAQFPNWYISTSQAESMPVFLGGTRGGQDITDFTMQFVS

human IL-1beta [10] = target: T1, human IL-1beta; experiment: as above; remark: listed apart in the source
Protocol: (§1) All experiments were performed at 25° C. using HBS-P (10 mM His, 140 mM NaCl, 0.05% Tween 20 pH 7.4) as running and dilution buffer. Anti-human or anti-mouse Fc antibodies were immobilized on a Series S CMS Sensor Chip (GE Healthcare) using standard amine coupling chemistry. […] The dissociation phase was monitored for 600 sec by washing with running buffer. […] The surface was regenerated by injecting 3 M MgCl2 (for anti-human Fc antibody) or 10 mM Glycine pH 1.5 (for anti-mouse Fc antibody) for 60 sec at a flow rate of 5 μl/min. Bulk refractive index differences were corrected by subtracting the response obtained from a mock surface. Blank injections were subtracted (double referencing). The derived curves were fitted to a 1:1 Langmuir binding model using the BIAevaluation software.

cynomolgus IL-1beta [11] = target: T2, cynomolgus IL-1beta; experiment: as above; remark: listed apart in the source
Protocol: as §1

human IL-1beta [12] = target: T1, human IL-1beta; experiment: immunoprecipitation radioimmunoassay with 125I-IL-1beta
Protocol: Determination of antibody affinity—Monoclonal antibody affinity was determined from data obtained using an immunoprecipitation radioimmunoassay. Briefly, 5000 cpm/tube of ¹²⁵IIL-1beta was incubated with dilutions of purified monoclonal antibody in 0.3 ml of 1% non-fat dry milk/0.5% Thimerosal/PBS overnight at 4° C. Antigen-antibody complexes were precipitated by the addition of 100 μL/tube each of 10% normal mouse serum/PBS and 4 mg/ml goat anti mouse IgG sera in PBS. After 4 hours at 4° C., the 1/ml tube of ice-cold 2% polyethylene glycol-6000 was added and the tubes centrifuged at 3000*g for 20 min. at 4° C. The supernatants were aspirated and the pellets counted in a gamma counter.
Affinity constants were calculated using data obtained from an immunoprecipitation radioimmunoassay (RIA) of ¹²⁵IIL-1beta binding of different antibody concentrations as described above.

human IL-1beta [13] = target: T1, human IL-1beta; experiment: cell-based or functional assay; remark: listed apart in the source
human IL-1beta [14] = target: T1, human IL-1beta; experiment: cell-based or functional assay; remark: listed apart in the source
human IL-1beta [15] = target: T1, human IL-1beta; experiment: cell-based or functional assay; remark: listed apart in the source

| Binder | EC50, reduction of IL-6 expression, A549 cells (human IL-1beta [1]) [nM] | IC50, inhibition of ICAM-1 expression, A549 cells (human IL-1beta [2]) [nM] | t½ (human IL-1beta [3]) [s] | IC50, inhibition of ICAM-1 expression, HUVEC cells (human IL-1beta [4]) [nM] | EC50, reduction of IL-6 expression, A549 cells (human IL-1beta [5]) [µg/mL] | further results |
| --- | --- | --- | --- | --- | --- | --- |
| B1 | 0.11 | 0.23 | 101 | 0.3 | – | – |
| B2 | – | – | 38 | – | 0.017 | IC50, inhibition of ICAM-1 expression, A549 cells (human IL-1beta [6]): 0.104 µg/mL |
| B3 | 1.09 | 2.23 | – | – | – | – |
| B4 | – | – | 38 | – | 0.0387 | – |
| B5 | 5.52 | > 7 | – | – | – | – |
| B6 | 0.12 | 0.31 | – | 9.02 | 0.0864 | – |
| B7 | – | 0.18 | – | 0.24 | – | IC50 (human IL-1beta [7]): 3.5 nM; Kd (human IL-1beta [8]): 0.07 nM; koff (human IL-1beta [8]): 0.000127 s⁻¹; kon (human IL-1beta [8]): 1.85e+06 M⁻¹ s⁻¹; Kd (cynomolgus IL-1beta [9]): 0.05 nM; koff (cynomolgus IL-1beta [9]): 9.8e-05 s⁻¹; kon (cynomolgus IL-1beta [9]): 1.99e+06 M⁻¹ s⁻¹; Kd (human IL-1beta [10]): 0.07 nM; koff (human IL-1beta [10]): 0.000127 s⁻¹; kon (human IL-1beta [10]): 1.85e+06 M⁻¹ s⁻¹; Kd (cynomolgus IL-1beta [11]): 0.05 nM; koff (cynomolgus IL-1beta [11]): 9.8e-05 s⁻¹; kon (cynomolgus IL-1beta [11]): 1.99e+06 M⁻¹ s⁻¹; Ka (human IL-1beta [12]): 6.4e+10 M⁻¹ |
| B8 | – | – | – | – | – | EC50, reduction of IL-6 expression, A549 cells (human IL-1beta [13]): 1.09 nM; IC50, inhibition of ICAM-1 expression, A549 cells (human IL-1beta [14]): 0.7 nM; IC50, inhibition of ICAM-1 expression, HUVEC cells (human IL-1beta [15]): 16.5 nM |
